The values that follow come from US8617883.

The experiment deals with Ephrin-B2 (human, full length coding sequence, expressed on mesenchymal stem cells nucleofected with pEphrin-B2/IRES2-eGFP) (human) (UniProt P52799). In words: flow cytometry, Fc-chimera binding to Ephrin-B2-transfected MSCs against untransfected MSCs, FITC anti-human IgG1 detection. A general note: A flow cytometer gives signals particle by particle.
UniProt P52799, sequence (P52799 28-333): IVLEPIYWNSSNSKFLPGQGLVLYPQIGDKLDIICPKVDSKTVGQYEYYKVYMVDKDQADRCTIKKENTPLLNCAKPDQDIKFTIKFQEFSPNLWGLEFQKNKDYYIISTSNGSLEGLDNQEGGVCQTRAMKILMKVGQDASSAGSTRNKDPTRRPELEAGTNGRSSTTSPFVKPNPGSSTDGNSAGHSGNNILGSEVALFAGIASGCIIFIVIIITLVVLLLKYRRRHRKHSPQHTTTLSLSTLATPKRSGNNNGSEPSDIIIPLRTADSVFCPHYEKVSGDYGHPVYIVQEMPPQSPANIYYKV

For the substance “Eph-B4/Fc chimera protein (pre-clustered) (Fc fusion)”, the increase in binding to transfected MSCs compared to normal cells was 22%.
